Test results as given in PMC9691366, “Modulating the pharmacokinetic profile of Actinium-225-labeled macropa-derived radioconjugates by dual targeting of PSMA and albumin” (Theranostics, 2022).

Assays:
[1] = assay type: physicochemical; details: pH 7.4
Description: 1-Octanol/water distribution coefficients (log D) were determined by applying the shake-flask-method. 20 µL of the reaction mixture were poured into 580 µL of 5xPBS (pH 7.4). Afterwards, 600 µL of 1-octanol was added and the two-phase-system was vigorously stirred for 5 min. Then, the samples were centrifuged, the phases were separated and the count rates were measured using ISOMED2160 sodium iodide crystal detector (at least 4 h after phase separation due to initial decay products).

[2] = system: LNCaP tumor-bearing SCID mice; assay: Ex vivo biodistribution in LNCaP tumor-bearing SCID mice
From the text: (§1) The biodistribution experiments with [^225Ac]Ac-mcp-M-alb-PSMA and [^225Ac]Ac-mcp-D-alb-PSMA were accomplished using LNCaP tumor-bearing mice. The SCID male mice (ENVIGO, Indianapolis, IN, USA) 8 weeks old were subcutaneously xenografted into the right flank with 10∙10^6 LNCaP cells (ATCC, Manassas, VA, USA) mixed with Matrigel Matrix (Corning Inc., Corning, NY, USA) at a 1:1 ratio. The tumor growth was periodically monitored by caliper-based measurements. When the tumor volume reached 200-300 mm^3 (i.e., approx. 6 weeks after the xenografting of the cells), the mice were enrolled in the biodistribution study. All experimental animals were housed in a specific-pathogen-free animal facility and all experiments with animals were performed in accordance with appropriate legal norms (Czech Law No. 246/1992) and with the approval of the Ministry of Education, Youth and Sports (MSMT-35035/2019-3) and approval of the Ethical committee of Faculty of Medicine and Dentistry, Palacky University in Olomouc. The number of animals was reduced as much as possible (n = 3-4 per group and time point) for in vivo experiments in order to strictly follow 3Rs principle.
(§2) For the purpose of biodistribution studies, the ^225Ac-radioconjugates were diluted with saline. The diluted ^225Ac-radioconjugates were applied retro-orbitally (r.o.) to the experimental animals at a dose of 50 kBq per mouse corresponding to 10 pmol of the PSMA-inhibitor. The radioactivity application was carried out under 2% isoflurane anesthesia (FORANE, Abbott Laboratories, Abbott Park, IL, USA) to minimize animal suffering and to prevent animal motion. The mice were sacrificed by cervical dislocation 1, 4, 24, 48, 72, and 120 h (plus 168 h for [^225Ac]Ac-mcp-D-alb-PSMA) post-injection and organs of interest (blood, spleen, pancreas, stomach, intestine, kidneys, liver, heart, lungs, muscle, bone, and tumor) were collected. The organs were weighed, and their radioactivity was counted on an automatic gamma counter. The uptake of the ^225Ac-radioconjugates was expressed as a percentage of injected dose per gram of the corresponding organ (%ID/g). The area under the curve (AUC) was determined for both tested PSMA ligands from non-decay-corrected data obtained from the ex vivo biodistribution data of the tumors, kidneys, and blood.

[3] = as above; details: mouse, in vivo, 50 kBq per mouse; for tissue uptake at 1 h: 1 h p.i.; for tissue uptake at 4 h: 4 h p.i.; for tissue uptake at 24 h: 24 h p.i.; for tissue uptake at 48 h: 48 h p.i.; for tissue uptake at 72 h: 72 h p.i.; for tissue uptake at 120 h: 120 h p.i.; for tissue uptake at 168 h: 168 h p.i.
From the text: as §1, §2

[4] = non-decay corrected biodistribution data, mean ± SD

In the case of `O=C(O)CC[C@H](NC(=O)N[C@@H](CCCCNC(=O)[C@H](Cc1ccc2ccccc2c1)NC(=O)[C@H]1CC[C@H](CNC(=O)[C@H](CCCCn2cc(COc3cc(CN4CCOCCOCCN(Cc5cc(OCc6cn(CCCC[C@H](NC(=O)[C@H](CCC(=O)O)NC(=O)CCCc7ccc(I)cc7)C(=O)NC[C@H]7CC[C@H](C(=O)N[C@@H](Cc8ccc9ccccc9c8)C(=O)NCCCC[C@H](NC(=O)N[C@@H](CCC(=O)O)C(=O)O)C(=O)O)CC7)nn6)cc(C(=O)O)n5)CCOCCOCC4)nc(C(=O)O)c3)nn2)NC(=O)[C@H](CCC(=O)O)NC(=O)CCCc2ccc(I)cc2)CC1)C(=O)O)C(=O)O` [[^225Ac]Ac-mcp-D-alb-PSMA, metal not drawn], the logD [1] is reported as -1.7, the “tumor uptake (AV)” value ([2]; 168 h p.i.) is reported as 153.48 ± 37.76 %ID/g and the “AUC for tumor accumulation compared to monovalent counterpart” value ([2]; mouse, in vivo) is reported as “almost double”. For the same molecule, the AUCTu-to-AUCBl ([2]; mouse, in vivo) was 26, the AUCTu-to-AUCKi ([2]; mouse, in vivo) was 1.4 and the AUCTu-to-AUCLi ([2]; mouse, in vivo) was 20. For the same molecule, the “AUCTu-to-AUCLi ratio compared with monovalent version of the ligand” value ([2]; mouse, in vivo) was 0.7 fold, the “blood clearance: duration of excretion” value ([2]; mouse, in vivo) was 72 h and the “maximal tumor uptake compared to counterpart without dedicated albumin binder” value ([2]; mouse, in vivo) was “twelve times higher”. For the same molecule, the “AUC Blood” value [2, 4] was 249 ± 10.4 %ID/g.h, the “AUC Kidneys” value [2, 4] was 4519 ± 193 %ID/g.h and the “AUC Liver” value [2, 4] was 328 ± 15.8 %ID/g.h. The “AUC Tumor” value [2, 4] was 6455 ± 411 %ID/g.h, the tissue to tissue ratio ([3]; male, SCID, total radioactivity) was 1420 and the tissue uptake at 1 h ([3]; blood uptake (AV)) was 8.44 %ID/g. For the same molecule, the tissue uptake at 4 h ([3]; blood uptake (AV)) was 6.5 %ID/g, the tissue uptake at 24 h ([3]; blood uptake (AV)) was 2.85 %ID/g and the tissue uptake at 48 h ([3]; blood uptake (AV)) was 1.22 %ID/g. It also gave a tissue uptake at 72 h ([3]; blood uptake (AV)) of 0.7 %ID/g, a tissue uptake at 120 h ([3]; blood uptake (AV)) of 0.2 %ID/g and a tissue uptake at 168 h ([3]; blood uptake (AV)) of 0.11 %ID/g. For the same molecule, the tissue uptake at 1 h ([3]; femur uptake (AV)) was 0.84 %ID/g, the tissue uptake at 4 h ([3]; femur uptake (AV)) was 0.89 %ID/g and the tissue uptake at 24 h ([3]; femur uptake (AV)) was 0.74 %ID/g. The tissue uptake at 48 h ([3]; femur uptake (AV)) was 0.96 %ID/g, the tissue uptake at 72 h ([3]; femur uptake (AV)) was 0.87 %ID/g and the tissue uptake at 120 h ([3]; femur uptake (AV)) was 1.22 %ID/g. The tissue uptake at 168 h ([3]; femur uptake (AV)) was 1.3 %ID/g, the tissue uptake at 1 h ([3]; heart uptake (AV)) was 2.47 %ID/g and the tissue uptake at 4 h ([3]; heart uptake (AV)) was 2.32 %ID/g. For the same molecule, the tissue uptake at 24 h ([3]; heart uptake (AV)) was 1.21 %ID/g, the tissue uptake at 48 h ([3]; heart uptake (AV)) was 0.94 %ID/g and the tissue uptake at 72 h ([3]; heart uptake (AV)) was 0.82 %ID/g. It also gave a tissue uptake at 120 h ([3]; heart uptake (AV)) of 0.88 %ID/g, a tissue uptake at 168 h ([3]; heart uptake (AV)) of 0.83 %ID/g and a tissue uptake at 1 h ([3]; intestine uptake (AV)) of 0.8 %ID/g. The tissue uptake at 4 h ([3]; intestine uptake (AV)) was 0.64 %ID/g, the tissue uptake at 24 h ([3]; intestine uptake (AV)) was 0.58 %ID/g and the tissue uptake at 48 h ([3]; intestine uptake (AV)) was 0.37 %ID/g. It also gave a tissue uptake at 72 h ([3]; intestine uptake (AV)) of 0.26 %ID/g, a tissue uptake at 120 h ([3]; intestine uptake (AV)) of 0.19 %ID/g and a tissue uptake at 168 h ([3]; intestine uptake (AV)) of 0.17 %ID/g. It also gave a tissue uptake at 1 h ([3]; kidneys uptake (AV)) of 9.23 %ID/g, a tissue uptake at 4 h ([3]; kidneys uptake (AV)) of 21.8 %ID/g and a tissue uptake at 24 h ([3]; kidneys uptake (AV)) of 43.7 %ID/g. For the same molecule, the tissue uptake at 48 h ([3]; kidneys uptake (AV)) was 59.9 ± 6.46 %ID/g, the tissue uptake at 72 h ([3]; kidneys uptake (AV)) was 50.1 %ID/g and the tissue uptake at 120 h ([3]; kidneys uptake (AV)) was 37.6 %ID/g. It also gave a tissue uptake at 168 h ([3]; kidneys uptake (AV)) of 33.7 ± 9.57 %ID/g, a tissue uptake at 1 h ([3]; liver uptake (AV)) of 2.42 %ID/g and a tissue uptake at 4 h ([3]; liver uptake (AV)) of 2.45 %ID/g. The tissue uptake at 24 h ([3]; liver uptake (AV)) was 2.52 %ID/g, the tissue uptake at 48 h ([3]; liver uptake (AV)) was 3.73 %ID/g and the tissue uptake at 72 h ([3]; liver uptake (AV)) was 3.39 %ID/g. The tissue uptake at 120 h ([3]; liver uptake (AV)) was 3.9 %ID/g, the tissue uptake at 168 h ([3]; liver uptake (AV)) was 4.31 %ID/g and the tissue uptake at 1 h ([3]; lung uptake (AV)) was 5.67 %ID/g. It also gave a tissue uptake at 4 h ([3]; lung uptake (AV)) of 4.57 %ID/g, a tissue uptake at 24 h ([3]; lung uptake (AV)) of 2.3 %ID/g and a tissue uptake at 48 h ([3]; lung uptake (AV)) of 2.75 %ID/g. It also gave a tissue uptake at 72 h ([3]; lung uptake (AV)) of 2.98 %ID/g, a tissue uptake at 120 h ([3]; lung uptake (AV)) of 7.5 %ID/g and a tissue uptake at 168 h ([3]; lung uptake (AV)) of 4.95 %ID/g. The tissue uptake ([3]; maximal uptake in spleen) was 11.4 ± 2.89 %ID/g, the tissue uptake at 1 h ([3]; muscle uptake (AV)) was 0.49 %ID/g and the tissue uptake at 4 h ([3]; muscle uptake (AV)) was 0.58 %ID/g. For the same molecule, the tissue uptake at 24 h ([3]; muscle uptake (AV)) was 0.28 %ID/g, the tissue uptake at 48 h ([3]; muscle uptake (AV)) was 0.29 %ID/g and the tissue uptake at 72 h ([3]; muscle uptake (AV)) was 0.2 %ID/g. The tissue uptake at 120 h ([3]; muscle uptake (AV)) was 0.24 %ID/g, the tissue uptake at 168 h ([3]; muscle uptake (AV)) was 0.22 %ID/g and the tissue uptake at 1 h ([3]; pancreas uptake (AV)) was 0.68 %ID/g. For the same molecule, the tissue uptake at 4 h ([3]; pancreas uptake (AV)) was 0.58 %ID/g, the tissue uptake at 24 h ([3]; pancreas uptake (AV)) was 0.5 %ID/g and the tissue uptake at 48 h ([3]; pancreas uptake (AV)) was 0.35 %ID/g. The tissue uptake at 72 h ([3]; pancreas uptake (AV)) was 0.39 %ID/g, the tissue uptake at 120 h ([3]; pancreas uptake (AV)) was 0.42 %ID/g and the tissue uptake at 168 h ([3]; pancreas uptake (AV)) was 0.37 %ID/g. For the same molecule, the tissue uptake at 1 h ([3]; spleen uptake (AV)) was 7.11 %ID/g, the tissue uptake at 4 h ([3]; spleen uptake (AV)) was 6.21 %ID/g and the tissue uptake at 24 h ([3]; spleen uptake (AV)) was 5.24 %ID/g. The tissue uptake at 48 h ([3]; spleen uptake (AV)) was 8.33 %ID/g, the tissue uptake at 72 h ([3]; spleen uptake (AV)) was 10.2 %ID/g and the tissue uptake at 120 h ([3]; spleen uptake (AV)) was 10 %ID/g. For the same molecule, the tissue uptake at 168 h ([3]; spleen uptake (AV)) was 11.4 %ID/g, the tissue uptake at 1 h ([3]; stomach uptake (AV)) was 0.98 %ID/g and the tissue uptake at 4 h ([3]; stomach uptake (AV)) was 0.59 %ID/g. The tissue uptake at 24 h ([3]; stomach uptake (AV)) was 0.61 %ID/g, the tissue uptake at 48 h ([3]; stomach uptake (AV)) was 0.4 %ID/g and the tissue uptake at 72 h ([3]; stomach uptake (AV)) was 0.27 %ID/g. It also gave a tissue uptake at 120 h ([3]; stomach uptake (AV)) of 0.34 %ID/g, a tissue uptake at 168 h ([3]; stomach uptake (AV)) of 0.27 %ID/g and a tissue uptake at 1 h ([3]; tumor uptake (AV)) of 3.35 %ID/g. It also gave a tissue uptake at 4 h ([3]; tumor uptake (AV)) of 10.6 %ID/g, a tissue uptake at 24 h ([3]; tumor uptake (AV)) of 27.6 %ID/g and a tissue uptake at 48 h ([3]; tumor uptake (AV)) of 57.4 %ID/g. It also gave a tissue uptake at 72 h ([3]; tumor uptake (AV)) of 86.4 %ID/g, a tissue uptake at 120 h ([3]; tumor uptake (AV)) of 120 %ID/g and a tissue uptake at 168 h ([3]; tumor uptake (AV)) of 127 %ID/g.
